Patent publication US20230049732A1 (UNIVERSITY OF LOUISVILLE RESEARCH FOUNDATION, published 2023)

T1: wtVLPs of parvovirus B19 genotype 1 (VP2 only) (parvovirus B19 genotype 1, UniProt P07299 228-781)
T1 construct: Intact virus-like particles self-assembled from VP2 alone, made in Sf9 cells with baculovirus; also called B19V genotype 1; Prototype Q399QYTDQ404
T1 sequence: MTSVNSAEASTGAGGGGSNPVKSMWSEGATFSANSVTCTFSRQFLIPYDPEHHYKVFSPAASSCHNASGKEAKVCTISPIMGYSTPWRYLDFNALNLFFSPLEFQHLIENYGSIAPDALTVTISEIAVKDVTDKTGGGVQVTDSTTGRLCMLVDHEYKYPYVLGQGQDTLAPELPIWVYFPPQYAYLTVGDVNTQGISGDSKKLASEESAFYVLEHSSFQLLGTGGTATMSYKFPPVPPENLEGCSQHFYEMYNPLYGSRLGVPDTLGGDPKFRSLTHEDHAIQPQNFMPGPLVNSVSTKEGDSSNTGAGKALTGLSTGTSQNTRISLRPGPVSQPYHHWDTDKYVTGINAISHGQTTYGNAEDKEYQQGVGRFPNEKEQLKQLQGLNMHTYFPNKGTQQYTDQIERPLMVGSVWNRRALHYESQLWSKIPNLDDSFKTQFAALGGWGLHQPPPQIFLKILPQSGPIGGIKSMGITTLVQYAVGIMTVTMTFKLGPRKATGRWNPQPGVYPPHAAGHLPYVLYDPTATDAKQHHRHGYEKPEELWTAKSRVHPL

T2: F401-VLPs of parvovirus B19 (parvovirus B19 genotype 1 (mutated), UniProt P07299 228-781)
T2 construct: also called F401-B19V; construct A
T2 chain: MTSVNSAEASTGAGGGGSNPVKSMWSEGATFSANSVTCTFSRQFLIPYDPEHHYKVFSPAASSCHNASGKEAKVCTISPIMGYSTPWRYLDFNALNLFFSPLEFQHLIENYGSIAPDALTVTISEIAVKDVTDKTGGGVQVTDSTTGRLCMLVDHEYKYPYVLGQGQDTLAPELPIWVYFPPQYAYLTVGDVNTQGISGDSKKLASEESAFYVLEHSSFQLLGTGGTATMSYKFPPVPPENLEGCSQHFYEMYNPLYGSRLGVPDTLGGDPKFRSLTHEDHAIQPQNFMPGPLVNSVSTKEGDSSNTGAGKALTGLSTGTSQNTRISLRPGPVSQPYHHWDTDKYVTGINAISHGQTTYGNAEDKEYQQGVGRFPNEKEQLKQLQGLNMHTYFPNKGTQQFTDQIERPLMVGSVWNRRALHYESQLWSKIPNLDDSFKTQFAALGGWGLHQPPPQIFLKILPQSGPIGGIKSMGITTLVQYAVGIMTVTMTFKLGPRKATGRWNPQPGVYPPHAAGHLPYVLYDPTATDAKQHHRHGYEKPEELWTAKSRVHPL


Columns and labels:
[1] = target: T1, wtVLPs of parvovirus B19 genotype 1 …; assay: ELISA, intact VLPs coated, hybridoma supernatant
[2] = target: T2, F401-VLPs of parvovirus B19; assay: ELISA, intact VLPs coated, hybridoma supernatant

Row | Binder | ELISA absorbance (405 nm) [1] | ELISA absorbance (405 nm) [2]
1 | MAb #25 (antibody, V domains shown, Murine hybridoma antibody, supernatant; also called antibody 25) VH: QVQLQQPGAELVRPGASVKLSCKASGYTFTNYWMHWVKQRPEQGLEWIGRIDPYDSETHYNQKFKDKAILTVDTSSNTAYMQLSSLTSEDSAVYYCTSYYYGSNYVWHFDVWGAGTTVTVSS VL: not shown | 2.86 | 3.82
2 | MAb #91 (antibody, V domains shown, Murine hybridoma antibody, supernatant; also called antibody 91) VH: EVQLQQSGPELVKPGASVKISCKASGYSFTDYFMNWVKQSHGKSLEWIGRINPYNGDSFYNQNFRGSVTLTVDKSSGTAHMELLSLTSEDSTVYYCGAYRYDGYAMDYWGQGTSVTVSS VL: DVVMTQTPLSLPVSLGDQASISCRSSQSLVHSDGNTYLHWYLQKPGQSPKLLIYKVSNRFSGVPDRFSGSGSGTDFTLKISRVEAEDLGVYFCSQSTHVPFTFGSGTKLEIK | 3.72 | 3.01
